In the supplement of paper PMC10201428:
± gives the standard deviation of the averaged measurements.

B1: library; a variant is named by its letters at N, in order (parent)
chain: AATGTTGTTGATGCAACCATAAAGTGATATTTAATAATTATTTATAATCAGCAACTTAACCACAAAACAACCATATATTGATATNTCACAAAACAACCATAANTTGATATTTTTGTGAATCGAGTATTTCAGCAAAACTACTGCAGTAAGAA

Experiments:
[1] = variants of: B1; test: relative integration efficiency (T-LR orientation) vs wild-type transposon end (log2 (normalized fold change)); transposon end mutated: left end; higher = more efficient transposition; settings: with VchCAST RNA-guided transposition machinery (E. coli BL21(DE3) host, lacZ target)
Method: (§1)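 Pooled, barcoded VchCAST (Tn6677) mini-transposon donor libraries; each variable transposon-end sequence sits in a fixed pDonor mini-transposon context (10-bp barcode and cargo not included). Left- or right-end libraries were co-transformed with pEffector (TniQ-Cascade, TnsABC, lacZ crRNA, T7, 0.1 mM IPTG) into E. coli BL21(DE3) and grown 18 h at 37 C. T-LR and T-RL junction amplicons were sequenced; output/input barcode fold change was normalised to the mean of four wild-type barcodes and log2-transformed. Two biological replicates; zero-count/undetected variants carry floor values (-10 / -15), censored here. Barcode uncoupling by PCR recombination adds noise.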

[2] = variants of: B1; test: relative integration efficiency (T-RL orientation) vs wild-type transposon end (log2 (normalized fold change)); transposon end mutated: left end; higher = more efficient transposition; settings: with VchCAST RNA-guided transposition machinery (E. coli BL21(DE3) host, lacZ target)
Method: as §1

Row | Variant | relative integration efficiency (log2) [1] | relative integration efficiency (log2) [2]
1 | AATGTTGTTGATGCAACCATAAAGTGATATTTAATAATTATTTATAATCAGCAACTTAACCACAAAACTACCATATATTGATATCTCACAAAACAACCATAAGTTGATATTTTTGTGAATCGAGTATTTCAGCAAAACTACTGCAGTAAGAA [CG A69T] | -0.153 ± 0.2 | -0.525 ± 0.1
2 | AATGTTGTTGATGCAACCATAAAGTGATATTTAATAATTATTTATAATCAGCAACTTAACCACAAAACTTCCATATATTGATATCTCACAAAACAACCATAAGTTGATATTTTTGTGAATCGAGTATTTCAGCAAAACTACTGCAGTAAGAA [CG A69T A70T] | -0.797 ± 0.57 | -0.395 ± 0.4
3 | AATGTTGTTGATGCAACCATAAAGTGATATTTAATAATTATTTATAATCAGCAACTTAACCACAAAACTTGGATATATTGATATCTCACAAAACAACCATAAGTTGATATTTTTGTGAATCGAGTATTTCAGCAAAACTACTGCAGTAAGAA [CG A69T A70T C71G C72G] | -1.93 ± 1.4 | -1.77 ± 0.77
4 | AATGTTGTTGATGCAACCATAAAGTGATATTTAATAATTATTTATAATCAGCAACTTAACCACAAAACACCCATATATTGATATCTCACAAAACAACCATAAGTTGATATTTTTGTGAATCGAGTATTTCAGCAAAACTACTGCAGTAAGAA [CG A70C] | 0.268 ± 0.068 | 0.0994 ± 0.073
5 | AATGTTGTTGATGCAACCATAAAGTGATATTTAATAATTATTTATAATCAGCAACTTAACCACAAAACACACATATATTGATATCTCACAAAACAACCATAAGTTGATATTTTTGTGAATCGAGTATTTCAGCAAAACTACTGCAGTAAGAA [CG A70C C71A] | -1.75 ± 1.2 | -1.24 ± 0.54
6 | AATGTTGTTGATGCAACCATAAAGTGATATTTAATAATTATTTATAATCAGCAACTTAACCACAAAACACAACTATATTGATATCTCACAAAACAACCATAAGTTGATATTTTTGTGAATCGAGTATTTCAGCAAAACTACTGCAGTAAGAA [CG A70C C71A C72A A73C] | -2 ± 1.7 | -2.13 ± 0.84
7 | AATGTTGTTGATGCAACCATAAAGTGATATTTAATAATTATTTATAATCAGCAACTTAACCACAAAACACCCATAAATTGATAATTAACAAAACAACCATAAGTTGATATTTTTGTGAATCGAGTATTTCAGCAAAACTACTGCAGTAAGAA [TG A70C T76A T84A C87A] | 0.577 ± 0.018 | -0.0929 ± 0.15
8 | AATGTTGTTGATGCAACCATAAAGTGATATTTAATAATTATTTATAATCAGCAACTTAACCACAAAACACCCATAAATTGATATTGCACAAAACAACCATAAGTTGATATTTTTGTGAATCGAGTATTTCAGCAAAACTACTGCAGTAAGAA [TG A70C T76A T86G] | 0.145 ± 0.46 | -0.133 ± 0.18
9 | AATGTTGTTGATGCAACCATAAAGTGATATTTAATAATTATTTATAATCAGCAACTTAACCACAAAACAGCCATATATTGATATCTCACAAAACAACCATAAGTTGATATTTTTGTGAATCGAGTATTTCAGCAAAACTACTGCAGTAAGAA [CG A70G] | -0.515 ± 0.21 | -0.664 ± 0.41
10 | AATGTTGTTGATGCAACCATAAAGTGATATTTAATAATTATTTATAATCAGCAACTTAACCACAAAACATCCATATATTGATATCTCACAAAACAACCATAAGTTGATATTTTTGTGAATCGAGTATTTCAGCAAAACTACTGCAGTAAGAA [CG A70T] | -0.297 ± 0.68 | -0.12 ± 0.26
